Patent publication US20240352105A1, “COMPOSITIONS AND METHODS FOR NEUTRALIZING ANTIGENS” (PACAGEN, INC, priority 2023, published 2024)

T1: recombinant His-tagged Der p1 (dust mite, UniProt P08176 99-320, limits assumed)
T1 construct: Recombinant His-tagged protein made by the applicant; also called Der p1-His; Der pl; not shown: His tag
T1 sequence (looked up): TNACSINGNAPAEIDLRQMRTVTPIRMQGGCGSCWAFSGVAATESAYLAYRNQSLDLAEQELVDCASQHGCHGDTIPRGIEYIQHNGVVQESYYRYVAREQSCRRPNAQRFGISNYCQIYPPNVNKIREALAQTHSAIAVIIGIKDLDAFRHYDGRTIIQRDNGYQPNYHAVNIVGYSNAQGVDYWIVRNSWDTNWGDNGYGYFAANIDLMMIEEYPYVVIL

T2: recombinant His-tagged Der p2 (dust mite, UniProt P49278 18-146)
T2 construct: also called Der p2-His; Der p2-HIS; not shown: His tag
T2 sequence (looked up): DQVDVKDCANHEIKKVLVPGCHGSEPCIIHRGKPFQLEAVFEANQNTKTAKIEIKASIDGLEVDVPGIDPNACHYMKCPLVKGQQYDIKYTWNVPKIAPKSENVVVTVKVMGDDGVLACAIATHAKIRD

B1: SDAB22129-55-35-46-49-1-H08 (VHH)
VHH: EVQLVESGGGLVQAGGSLTLSCGRTTSIWGMGWFRQGRGKEREFVAAITPSGSITFYSDHVKGRFTVSRDNALNTVYLQMNSLKPEDTAVYYCARRGSSGSYYWAGSYEAWGQGTQVTVSS
notes: Expressed from a prokaryotic vector
B2: SDAB22111-1-C1 (VHH)
VHH: QVQLVESGGGLVQPGGSLRLSCAASASFVGAYAMYWFRQATGKQRELVAFITSGNSTNYADSVKGRFTISRDYTKNTVYLQMNKLKPEDTAVYSCNLVTSRGDYWGQGTQVTVSS
notes: anti-Der p2 alpaca VHH; prokaryotic expression
B3: SDAB22111-1-B1 (VHH)
VHH: DVQLVESGGGLVQPGGSLRLSCAASGFTFALYSMRWYRQAPGKERELVAAITSGRSTNYADSVKGRFTISRDNAKNTVYLQMNSLKPEDTAVYHCNARHPIATLGNYWGQGTPVTVSS
notes: as for B2
B4: SDAB22129-55-35-46-49-1-B02 (VHH)
VHH: QLQLVESGGGLVQSGGSLRLSCVAKGGTNHPYPIGWFRQAPGKEQEGVLCIASGGQTQDSAHNPNWADSVKGRFTISRDDATHTVYLEMNNLKADDTAVYFCAAPREIYIDSRCATYKYEYWGQGTQVTVSP
notes: as for B1
B5: SDAB22111-1-D3 (VHH)
VHH: QLQLVESGGGLVQPGGSLRLSCVVSGRTLSGHNMGWFRQAPGKEREFVARINSNGGTTRYADAVKGRFTISRDNAKNTAYLQMNSLKSEDTAVYYCRLVGPAGYWGQGTQVTVSS
notes: as for B2
B6: SDAB22129-55-35-46-49-1-C12 (VHH)
VHH: QVQLVESGGGLVQAGGSLRLSCAASGRTFSSYAMGWFRQAPGKEREFVAIISNTGGLTDYAHSVKGRFTISRDNAKNTGYLQMNSLKPEDTALYYCAADFLGPKSWPSYWGQGTQVTVSS
notes: as for B1
B7: SDAB22111-1-F9 (VHH)
VHH: QVQLVESGGGLVQPGGSLRLSCAASGRIFRPDGMAWYRQAPGKQREFVAGITRGGRTTYADSVKGRFTISRDNAENTVYLQMNSLKPEDTAVYYCNAKPSAWTLPRYRYDYWGQGTQVTVSS
notes: as for B2
B8: SDAB22112-2-D08 (VHH)
VHH: QVKLEESGGGLVQAGGSLRLSCVASGRTFSRWHTGWYRQAPGREREFVATLRASGGDTYYADSVKGRFTISRDNAKNTVYLQMNSLKPEDTAVYYCNVWANWGAPPSDFSSWGQGTQVTVSS
notes: anti-Can f1 alpaca VHH
B9: SDAB22129-55-35-46-49-1-B12 (VHH)
VHH: QVQLVESGGGLVQAGGPLRLSCAASGRTFSSYAMGWFRQAPGKEREFVAAISWSGDSTYYADSVKGRFTLSRDNAKNTVYLQMNSLKPEDTAVYYCAVPSSGRGTYYYTLSAYEYWGQGTQVTVFS
notes: as for B1
B10: SDAB22111-1-D6 (VHH)
VHH: DVQLVESGGGLVQPGGSLRLSCVASGLTFSYYDMKWHRQAPGKERELVAAIIEGGRTMYADSVKGRFTISRDSPKKSVYLQMNNLKSEDTAVYYCNAVRARFRGLGNDDAWGQGTQVTVSS
notes: as for B2
B11: SDAB22111-1-H12 (VHH)
VHH: QVQLVESGGGLVQPGGSLRLSCAASRSIDRFPAMGWYRQAPGKKRELVAAISSANTRTKYADSVKGRFTISRDNAENTMYLQMNSLKPEDTAVYYCNVFPRPVQGYWGQGTQVTVSS
notes: as for B2
B12: SDAB22129-55-35-46-49-1-D01 (VHH)
VHH: QVQLVESGGGLVQAGGSLRLSCAASGRTFSRYAMGWFRQAPGKEREFVAAITGSGSRTYYADSIQGRFTISRDNAKNTVYLQMNSLKPEDTAVYYCVQGWAEATMTSLGEDYDYWGQGTQVTVSS
notes: as for B1
B13: SDAB22112-1-D12-3 (VHH)
VHH: QVQLVESGGGLVQPGGSLRLSCAASGFTFSNYGMSWVRQAPGKGLEWVSDVNSSGSRRFYVDSVKGRFTISRDNAKNTVFLQMNSLKPEDSAVYYCVKLAEAGTLIHVGSWGQGTRVTVSS
notes: anti-Can f1 alpaca VHH
B14: SDAB22112-1-B6-B05 (VHH)
VHH: QLQLVESGGGLVQPGGSLRLSCAASRSIFSSYVMAWYRRAPGKKRELVASIANVGSNTDYASFAKGRFTISRDDDKSRDNDKITVYLQMNSLNPEDTAVYYCNAWLGAGSDYWGQGTQVTVSS
notes: anti-Can f1 alpaca VHH
B15: SDAB22129-55-35-46-49-1-G02 (VHH)
VHH: QLQLVESGGGLVQAGGSLRLSCTASGRTFRNFGMGWFRQAPGKERKLVASISYVGGNTDYADSVKGRFTISMDNAKNTVVLQMNSLKPEDTAMYYCAARNPNRNEYPWWGQGTQVTVSS
notes: as for B1
B16: SDAB22129-55-35-46-49-1-G07 (VHH)
VHH: QVQLVESGGGLVQAGGSLRLSCAASGRTFSSYAMGWFRQAPGKERELVATISWSGGSTYYADSVKGRFTISRDNAKNTGFLQMNSLKPEDTAVYYCAADFASTVGTPLTRPAYWGQGTQVTVSS
notes: as for B1
B17: SDAB22112-1-C9 (VHH)
VHH: QLQLVESGGGLVQPGGSLRLSCVGSGFTFSLASMGWYRQAPGKEREWVASISSLDASTNYADSVKGRFTISRDNAKRMVYLQMNNLKSEDTAVYYCKAMNYWGKGTQVTVSS
notes: anti-Can f1 alpaca VHH
B18: SDAB22111-1-F9-B03 (VHH)
VHH: EVQLVESGGGLVQPGGSLRLSCAASGRTFSSYAMGWFRQAPGKEREFVAGISRRGSNIYYADSVKGRFTISRDNAKNTVYLQMNSLKPEDTAVYYCNARHPRISTRLYWGQGTQVTVSS
notes: as for B2
B19: SDAB22112-1-C10 (VHH)
VHH: QLQLVESGGGLVQPGGSLRLSCAASGFTFSSYSMSWYRQAPGKERELVATIDTDGRTNYADSVKGRFTISRDNAKNSVYLQMNSLKPEDTAVYYCNRRQLGVDYWGQGTQVTVSS
notes: anti-Can f1 alpaca VHH
B20: SDAB22111-1-E10 (VHH)
VHH: QLQLVESGGGMVQPGGSLRLSCAASGTLFSTALMGWYRQAPGKQRTLVASITDGGSTNYVDSVKGRFTISRDNEKNTVYLQMNSLKFEDTAVYYCNAHWGSYDYWGQGTQVVVSS
notes: as for B2

Key:
[1] = target: T1, recombinant His-tagged Der p1; test: ELISA, antigen coated on plate
Procedure: (§1) 2 microgram per milliliter (μg/mL) target antigen is coated in a 96-well plate and ELISA assay is performed after incubation with candidate VHHs. The binding EC50 of each clone is calculated using Prism GraphPad. The positive control antibody is involved as an internal control.
Isolated VHH clones were further validated by performing an ELISA assay as described in Example 1. The individual binding curves are shown for each candidate in FIGS. 9A-9K.

[2] = target: T1, recombinant His-tagged Der p1; test: cell-based or functional assay
[3] = target: T2, recombinant His-tagged Der p2; test: ELISA, antigen coated
Procedure: as §1
(§2) Isolated VHH clones were further validated by performing an ELISA assay as described in Example 1. Metrics of thermostability including melting temperature (Tₘ), onset temperature (Tₒₙₛₑₜ), and temperature of aggregation (Tagg), were also tested with increasing temperature in the range of 20° C.-95° C. at the speed of 1° C./min. These measurements were performed using a Nanotemper DSF. When applicable, Tₘ1 refers to the first melting point observed, Tₘ2 refers to the second melting point observed, etc., Sequence information for the VHH clones and the binding assay results are summarized in Table 3. The individual binding curves are shown for each candidate in FIGS. 3B-3I.

[4] = Thermostability (Tm, Tonset, Tagg) by Nanotemper DSF; format: physicochemical; parameters: key to Tm2 / Tagg / Tm1 / Tm / Tm3 / Tonset / Tonset ø (mean) / Tagg ø (mean): temperatures in °C; details: anti-Der p2 VHH; for Tagg: 20° C.-95° C. at 1° C./min; for Tm1: first melting point observed; for Tm2: second melting point observed
Procedure: as §2, with “(Tm),” for “(Tₘ),”, “(Tonset),” for “(Tₒₙₛₑₜ),”, “Tm1” for “Tₘ1”, “Tm2” for “Tₘ2”
(§3) Isolated VHH clones were further validated by performing an ELISA assay as described in Example 1. Metrics of thermostability including melting temperature (Tm), onset temperature (Tonset), and temperature of aggregation (Tagg), were also tested with increasing temperature in the range of 20° C.-95° C. at the speed of 1° C./min. The individual binding curves are shown for each candidate in FIGS. 5B-5H.
as §3, with “7B-7P.” for “5B-5H.”
The detailed thermostability graphs used to determine the Tm, Tonset, and Tagg are illustrated in FIGS. 19A-19I and raw data is summarized in Table 23. Any subsequent melting points observed (Tm1, Tm2, Tm3, etc.) are separated by commas.

[5] = target: T3, recombinant His-tagged Can f1 (dog (Canis familiaris), UniProt O18873 19-174); test: ELISA, antigen coated
T3 construct: also called Can f1-His; recombinant Can f1; not shown: His tag
Procedure: as §1
as §3, with “(Tₘ),” for “(Tm),”, “(Tₒₙₛₑₜ),” for “(Tonset),”

T3 sequence (O18873 19-174 limits assumed): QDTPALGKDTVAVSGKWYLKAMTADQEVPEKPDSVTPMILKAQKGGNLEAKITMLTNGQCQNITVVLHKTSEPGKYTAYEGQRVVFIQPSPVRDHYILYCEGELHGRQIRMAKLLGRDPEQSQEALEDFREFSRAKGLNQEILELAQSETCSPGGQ

Molecule | EC50 [1] | Maximum Rate of Blocking [2] | EC50 [3] | further results
B1 | 16.5 µg/mL | 92.8 |  | 
B2 |  |  | 1.11 µg/mL | Tagg [4]: 43.53; Tm1 ([4]; in °C (unit assumed)): 54.52; Tm2 ([4]; in °C (unit assumed)): 66.51
B3 |  |  | 8.23 µg/mL | 
B4 | 0.0193 µg/mL | 75.4 |  | 
B5 |  |  | 8.41 µg/mL | Tagg [4]: 42.45; Tm1 ([4]; in °C (unit assumed)): 53.78; Tm2 ([4]; in °C (unit assumed)): 69.76
B6 | 4.95 µg/mL | 91.6 |  | 
B7 |  |  | 4.95 µg/mL | 
B8 |  |  |  | EC50 [5]: 5.84 µg/mL
B9 | 1.77 µg/mL | 95.4 |  | 
B10 |  |  | 9.66 µg/mL | Tagg [4]: 41.57; Tm1 ([4]; in °C (unit assumed)): 49.02; Tm2 ([4]; in °C (unit assumed)): 62.55
B11 |  |  | 2.67 µg/mL | Tagg [4]: 43.37; Tm1 ([4]; in °C (unit assumed)): 51.93; Tm2 ([4]; in °C (unit assumed)): 59.13; Tm3 ([4]; third melting point, in °C (unit assumed)): 68.62
B12 | 0.0147 µg/mL | 73 |  | 
B13 |  |  |  | EC50 [5]: 10.4 µg/mL
B14 |  |  |  | EC50 [5]: 8.42 µg/mL
B15 | 4.21 µg/mL | 85.2 |  | 
B16 | 0.485 µg/mL | 93.3 |  | 
B17 |  |  |  | EC50 [5]: 13.1 µg/mL
B18 |  |  | 15.9 µg/mL | Tagg [4]: 40.04; Tm ([4]; single melting point, in °C (unit assumed)): 71.38
B19 |  |  |  | EC50 [5]: 9.4 µg/mL
B20 |  |  | 6.57 µg/mL | 
